According to the supplement of paper PMC6755084:

B1: minF1; the commonest letter at each place (parent)
chain: GAGACCGCAACTGAAAAGTTGTTATCAGAAATGGATGGGTTGAATTTCTGCACGTAGAAGCAAAAGGC

Variants of: B1
Assay: fraction ligated after 30 min (ligated reads / total reads); higher = more ligase activity
Conditions: with F1*subA RNA substrate (template-directed ligation), 42 °C
Method in brief: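 Oligo-pool templates of minimized ligase ribozyme variants were PCR-amplified, T7-transcribed and gel-purified. Ligated and unligated RNAs were gel-separated, reverse transcribed with barcoded primers, and MiSeq-sequenced; core bases were filtered at quality ≥30. Fraction ligated per variant was ligated reads over total reads.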
With GAGACCGCAACTGAAAAGTTGTTATTAGAAATTGATGGGTTGAATTTCTGCACGTAGAAGCAAAAGGC [C26T G33T] the fraction ligated was 0.206.
In the case of GAGACCGCAACTGAAAAGTTGTTATTAGAAATCGATGGGTTGAATTTCTGCACGTAGAAGCAAAAGGC [C26T G33C], the fraction ligated is reported as 0.325.
With GAGACCGCAACTGAAAAGTTGTTATCGCAAATGGATGGGTTGAATTTCTGCACGTAGAAGCAAAAGGC [A27G G28C] the fraction ligated was 0.793.
Variant GAGACCGCAACTGAAAAGTTGTTATCGAAAATGGATGGGTTGAATTTCTGCACGTAGAAGCAAAAGGC [A27G G28A] has a fraction ligated of 0.797.
For GAGACCGCAACTGAAAAGTTGTTATCGTAAATGGATGGGTTGAATTTCTGCACGTAGAAGCAAAAGGC [A27G G28T], the fraction ligated was 0.824.
GAGACCGCAACTGAAAAGTTGTTATTAGAAATGGATAGGTTGAATTTCTGCACGTAGAAGCAAAAGGC [C26T G37A] was tested, and the fraction ligated was 0.00482.
For GAGACCGCAACTGAAAAGTTGTTATTAGAAATGGATCGGTTGAATTTCTGCACGTAGAAGCAAAAGGC [C26T G37C], the fraction ligated was 0.00325.
For GAGACCGCAACTGAAAAGTTGTTATTAGAAATGGATTGGTTGAATTTCTGCACGTAGAAGCAAAAGGC [C26T G37T], the fraction ligated was 0.00513.
In the case of GAGACCGCAACTGAAAAGTTGTTATCCGAAATGGATAGGTTGAATTTCTGCACGTAGAAGCAAAAGGC [A27C G37A], the fraction ligated is reported as 0.0106.
Work on GAGACCGCAACTGAAAAGTTGTTATCCGAAATGGATTGGTTGAATTTCTGCACGTAGAAGCAAAAGGC [A27C G37T] yielded a fraction ligated of 0.0224.
In the case of GAGACCGCAACTGAAAAGTTGTTATCCGAAATGGATCGGTTGAATTTCTGCACGTAGAAGCAAAAGGC [A27C G37C], the fraction ligated is reported as 0.004.
Variant GAGACCGCAACTGAAAAGTTGTTATCCGAAATGGGTGGGTTGAATTTCTGCACGTAGAAGCAAAAGGC [A27C A35G] has a fraction ligated of 0.112.
GAGACCGCAACTGAAAAGTTGTTATCCGAAATGGCTGGGTTGAATTTCTGCACGTAGAAGCAAAAGGC [A27C A35C] was tested, and the fraction ligated was 0.481.
Variant GAGACCGCAACTGAAAAGTTGTTATCCGAAATGGTTGGGTTGAATTTCTGCACGTAGAAGCAAAAGGC [A27C A35T] has a fraction ligated of 0.176.
GAGACCGCAACTGAAAAGTTGTTATCGGCAATGGATGGGTTGAATTTCTGCACGTAGAAGCAAAAGGC [A27G A29C] showed a fraction ligated of 0.809.
GAGACCGCAACTGAAAAGTTGTTATCGGGAATGGATGGGTTGAATTTCTGCACGTAGAAGCAAAAGGC [A27G A29G] showed a fraction ligated of 0.797.
With GAGACCGCAACTGAAAAGTTGTTATCGGTAATGGATGGGTTGAATTTCTGCACGTAGAAGCAAAAGGC [A27G A29T] the fraction ligated was 0.808.
In the case of GAGACCGCAACTGAAAAGTTGTTATCGGAAATGGTTGGGTTGAATTTCTGCACGTAGAAGCAAAAGGC [A27G A35T], the fraction ligated is reported as 0.0618.
Variant GAGACCGCAACTGAAAAGTTGTTATCGGAAATGGCTGGGTTGAATTTCTGCACGTAGAAGCAAAAGGC [A27G A35C] has a fraction ligated of 0.0489.
Work on GAGACCGCAACTGAAAAGTTGTTATCGGAAATGGGTGGGTTGAATTTCTGCACGTAGAAGCAAAAGGC [A27G A35G] yielded a fraction ligated of 0.332.
GAGACCGCAACTGAAAAGTTGTTATCGGAACTGGATGGGTTGAATTTCTGCACGTAGAAGCAAAAGGC [A27G A31C] showed a fraction ligated of 0.802.
GAGACCGCAACTGAAAAGTTGTTATCGGAAGTGGATGGGTTGAATTTCTGCACGTAGAAGCAAAAGGC [A27G A31G] was tested, and the fraction ligated was 0.806.
GAGACCGCAACTGAAAAGTTGTTATCGGAATTGGATGGGTTGAATTTCTGCACGTAGAAGCAAAAGGC [A27G A31T] gave a fraction ligated of 0.816.
With GAGACCGCAACTGAAAAGTTGTTATCCGAATTGGATGGGTTGAATTTCTGCACGTAGAAGCAAAAGGC [A27C A31T] the fraction ligated was 0.455.
GAGACCGCAACTGAAAAGTTGTTATCCGAACTGGATGGGTTGAATTTCTGCACGTAGAAGCAAAAGGC [A27C A31C] gave a fraction ligated of 0.421.
Variant GAGACCGCAACTGAAAAGTTGTTATCCGAAGTGGATGGGTTGAATTTCTGCACGTAGAAGCAAAAGGC [A27C A31G] has a fraction ligated of 0.687.
GAGACCGCAACTGAAAAGTTGTTATCCGAAAGGGATGGGTTGAATTTCTGCACGTAGAAGCAAAAGGC [A27C T32G] was tested, and the fraction ligated was 0.0136.
Variant GAGACCGCAACTGAAAAGTTGTTATCCGAAACGGATGGGTTGAATTTCTGCACGTAGAAGCAAAAGGC [A27C T32C] has a fraction ligated of 0.0159.
GAGACCGCAACTGAAAAGTTGTTATCCGAAAAGGATGGGTTGAATTTCTGCACGTAGAAGCAAAAGGC [A27C T32A] gave a fraction ligated of 0.0275.
GAGACCGCAACTGAAAAGTTGTTATTAGAAATGGATGGGTTTAATTTCTGCACGTAGAAGCAAAAGGC [C26T G42T] gave a fraction ligated of 0.00392.
Work on GAGACCGCAACTGAAAAGTTGTTATTAGAAATGGATGGGTTCAATTTCTGCACGTAGAAGCAAAAGGC [C26T G42C] yielded a fraction ligated of 0.00245.
Work on GAGACCGCAACTGAAAAGTTGTTATTAGAAATGGATGGGTTAAATTTCTGCACGTAGAAGCAAAAGGC [C26T G42A] yielded a fraction ligated of 0.0165.
GAGACCGCAACTGAAAAGTTGTTATCGGAAATGGATGGGTTGCATTTCTGCACGTAGAAGCAAAAGGC [A27G A43C] gave a fraction ligated of 0.132.
Variant GAGACCGCAACTGAAAAGTTGTTATCGGAAATGGATGGGTTGTATTTCTGCACGTAGAAGCAAAAGGC [A27G A43T] has a fraction ligated of 0.169.
Work on GAGACCGCAACTGAAAAGTTGTTATCGGAAATGGATGGGTTGGATTTCTGCACGTAGAAGCAAAAGGC [A27G A43G] yielded a fraction ligated of 0.105.
Work on GAGACCGCAACTGAAAAGTTGTTATCCGAAATGCATGGGTTGAATTTCTGCACGTAGAAGCAAAAGGC [A27C G34C] yielded a fraction ligated of 0.00877.
GAGACCGCAACTGAAAAGTTGTTATCCGAAATGTATGGGTTGAATTTCTGCACGTAGAAGCAAAAGGC [A27C G34T] showed a fraction ligated of 0.0114.
With GAGACCGCAACTGAAAAGTTGTTATCCGAAATGAATGGGTTGAATTTCTGCACGTAGAAGCAAAAGGC [A27C G34A] the fraction ligated was 0.15.
GAGACCGCAACTGAAAAGTTGTTATCCGAAATGGATGGGTTGAGTTTCTGCACGTAGAAGCAAAAGGC [A27C A44G] gave a fraction ligated of 0.38.
